{"source": "patent US20200031919A1", "about": "(SUZHOU KANOVA BIOPHARMACEUTICAL, published 2020)", "binders": {"B1": {"name": "humanized anti-IL17A/F antibody VH1-1/VL2-1 (antibody, V domains shown)", "VH": "QFQLVQSGAEVKKPGASVKVSCKASGYTFTDYNLNWVRQAPGKGLEWMGVIHPDYGTTSYNQKFKDRVTMTVDTSTSTVYMELSSLRSEDTAVYYCVRYDYGDAMDYWGQGTLVTVSS", "VL": "DIVMTQTPLSSSVTLGQPASISCRSSQSLVHSNGNTYLHWLQQRPGQPPRLLIYKVSNRFSGVPDRFSGSGAGTDFTLKISRVEAEDVGVYYCSQSTHVPLTFGQGTKLEIK", "notes": "It was tested as a humanized IgG captured through its Fc by an anti-human Fc antibody"}}, "molecular_target": "T1, human IL-17A (human, UniProt Q16552 24-155)", "T1 construct": "Commercial recombinant protein; also called hIL-17A; CTLA-8", "T1 sequence (looked up)": "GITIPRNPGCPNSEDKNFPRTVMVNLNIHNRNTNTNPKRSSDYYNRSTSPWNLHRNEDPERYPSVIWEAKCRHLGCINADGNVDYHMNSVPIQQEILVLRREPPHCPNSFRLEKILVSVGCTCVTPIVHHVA", "assay": "SPR (Biacore T200), antibody captured by anti-human Fc, IL-17 as analyte", "procedure": "Anti-human Fc gamma specific antibody (Jackson Immuno Research, Lot no. 124448, Code. 109-008-098) was immobilized onto the sensor chip using amine coupling method. Four antibodies secreted to the culture medium plus the parental antibody were injected and captured by anti-human Fc antibody via Fc (capture phase) individually. After equilibration, IL-17 was injected for 300 seconds (association phase) followed by the injection of running buffer for 1200s (dissociation phase). Responses of reference flow cell (flow cell 1) were subtracted from those of humanized antibodies flow cells during each cycle. The surface was regenerated before the injection of another humanized antibody. The process was repeated until all antibodies are analyzed. The off-rates of humanized antibodies were obtained from fitting the experimental data locally to 1:1 interaction model using the Biacore T200 evaluation software. The antibodies were ranked by their dissociation rate constants (off-rates, Kd). The binders that interact with IL-17 with similar affinity to parental antibody were selected."}
{"binder": "B1", "values": [{"measurement": "Kd", "result": 840, "unit": "pM"}, {"measurement": "koff", "result": 0.0018, "unit": "s⁻¹"}, {"measurement": "kon", "result": "2.2e+06", "unit": "M⁻¹ s⁻¹"}]}
